Measurements: patent US20260193326A1 (published 2026)

Legend:
[1] = target: T1, AAV5 (adeno-associated virus serotype 5); experiment: SPR, AAV on CM5 chip
T1 construct: also called adeno-associated virus serotype 5

[2] = target: T2, AAV8 (adeno-associated virus serotype 8); experiment: SPR, AAV on CM5 chip
T2 construct: also called adeno-associated virus serotype 8

[3] = target: T3, AAV2 (adeno-associated virus serotype 2, UniProt P03135 1-735); experiment: SPR, AAV on CM5 chip
T3 construct: also called adeno-associated virus serotype 2

[4] = target: T4, AAV9 (adeno-associated virus serotype 9); experiment: SPR, AAV on CM5 chip
T4 construct: also called adeno-associated virus serotype 9

[5] = target: T5, AAV9 (adeno-associated virus serotype 9 (AAV9)); experiment: 1 mL column of A4-002 coupled to agarose gel (11.58 mg/g gel); AAV capsid particles bound
T5 construct: also called adeno-associated virus serotype 9; AAV9 antigen

[6] = target: T6, AAV8 (adeno-associated virus serotype 8 (AAV8)); experiment: as above
T6 construct: also called adeno-associated virus serotype 8; AAV8 antigen

[7] = target: T7, AAV6 (adeno-associated virus serotype 6 (AAV6)); experiment: as above
T7 construct: also called adeno-associated virus serotype 6

[8] = target: T8, AAV5 (adeno-associated virus serotype 5 (AAV5)); experiment: as above
T8 construct: also called adeno-associated virus serotype 5; AAV5 antigen

[9] = target: T5, AAV9; experiment: 1 mL column of A4-014 coupled to agarose gel (3.12 mg/g gel); AAV capsid particles bound
[10] = target: T6, AAV8; experiment: as above
[11] = target: T7, AAV6; experiment: as above
[12] = target: T8, AAV5; experiment: as above
[13] = target: T5, AAV9; experiment: 1 mL column of A4-024 coupled to agarose gel (6.36 mg/g gel); AAV capsid particles bound
[14] = target: T9, AAV2 (adeno-associated virus serotype 2 (AAV2), UniProt P03135 1-735); experiment: as above
T9 construct: also called adeno-associated virus serotype 2; AAV2 antigen

[15] = target: T6, AAV8; experiment: as above
[16] = target: T7, AAV6; experiment: as above
[17] = target: T8, AAV5; experiment: as above
[18] = target: T5, AAV9; experiment: 1 mL column of A4-008 coupled to agarose gel (10.74 mg/g gel); AAV capsid particles bound
[19] = target: T6, AAV8; experiment: as above
[20] = target: T7, AAV6; experiment: as above
[21] = target: T8, AAV5; experiment: as above
[22] = target: T5, AAV9; experiment: 1 mL column of A4-008 coupled to agarose gel (9.77 mg/g gel); AAV capsid particles bound
[23] = target: T6, AAV8; experiment: as above
[24] = target: T7, AAV6; experiment: as above
[25] = target: T8, AAV5; experiment: as above

B1: A4-H6 (VHH)
VHH: VQLVESGGGLVQPGGSLRLSCAASGRGFSINTMGWFRQAPGKGRELVAIVTRGGTTYYADSVKGRFTISRDNSKNTVYLQMNSLRAEDTAVYYCHVDEVRQSSWTTSNLWGQGTLVTVSS
[1]
  Kd: 746 nM
  koff: 0.00565 s⁻¹
  kon: 7570 M⁻¹ s⁻¹
[2]
  Kd: 344 nM
  koff: 0.00164 s⁻¹
  kon: 4760 M⁻¹ s⁻¹
[3]
  Kd: 746 nM
  koff: 0.00565 s⁻¹
  kon: 7570 M⁻¹ s⁻¹
[4]
  Kd: 1160 nM
  koff: 0.00177 s⁻¹
  kon: 1530 M⁻¹ s⁻¹

B2: A4-002 (VHH)
VHH: VQLQESGGGLVQPGGSLRLSCAASGRSFSINTMGWYRQAPGKQRELVAAVTRGGSTNYAGSVKGRFTISRDNAKNTVYLQMNSLRPEDTAVYYCHIDEVRQSSWTTSNIWGQGTQVTVSS
[5]
  binding capacity: 1.26e+14 VP
[6]
  binding capacity: 1.02e+14 VP
[7]
  binding capacity: 9.2e+13 VP
[8]
  binding capacity: 1.17e+14 VP

B3: A4-014 (VHH)
VHH: VQLQESGGGLVQPGGSLRLSCAASGSRFSINSMGWYRQAPGKQRELVATVTRGGNTNYAGSVKGRFTISRDNAKNTVYLQMNSLRPEDTAVYYCHVDEVRESSWTTSNLWGQGTQVTVSS
[9]
  binding capacity: 4.3e+13 VP
[10]
  binding capacity: 3.83e+13 VP
[11]
  binding capacity: 2.59e+13 VP
[12]
  binding capacity: 3.22e+13 VP

B4: A4-024 (VHH)
VHH: VQLQESGGGLVQPGGSLRLSCAASGSNFRINTMGWYRQAPGKQRELVATVTRGGSTNYADSVKGRFTISRDNPKNTVYLQMNSLRPEDTAVYYCHVDEVRESSWTTSNLWGQGTQVTVSS
[13]
  binding capacity: 6.5e+13 VP
[14]
  binding capacity: 7.65e+13 VP
[15]
  binding capacity: 5.17e+13 VP
[16]
  binding capacity: 6.09e+13 VP
[17]
  binding capacity: 4.8e+13 VP

B5: A4-008 (VHH)
VHH: VQLQESGGGLVQAGGSLRLSCAASGRAFSINTMGWYRQAPPKQRELVATVTRGGSTNYAGSVKGRFTISRDNAKNTIYLQMNSLRPEDTAVYYCHVDEVRQSSWTTSNIWGQGTQVTVSS
[18]
  binding capacity: 9.17e+13 VP
[19]
  binding capacity: 1.16e+14 VP
[20]
  binding capacity: 9.43e+13 VP
[21]
  binding capacity: 8.95e+13 VP
[22]
  binding capacity: 8.83e+13 VP
[23]
  binding capacity: 9.47e+13 VP
[24]
  binding capacity: 8.78e+13 VP
[25]
  binding capacity: 8.56e+13 VP
